The source of these data is patent US20070060522A1 (ENSION, published 2007).

Assay [1] concerns the target αMβ2 (Mac-1; CD11b/CD18) on human peripheral blood monocytes (human, UniProt P11215 17-1152; P05107 23-769). Description: inferred from peptide blocking of monocyte/A375 adherence under flow. On the procedure: Pre-treatment of tumor cells with P1 and monocytes with sFn or tumor cells with sFn and monocytes with P2 inhibited adherence to a similar level to that of sFn treatment of both cells (P>0.05 to fibrin; n=5 in each case).
Peptide Blocking of Cellular Adherence: After fluorescence labeling of each cell type, stock peptides were added to both confluent coverslips and/or 1 milliliter suspensions of monocytes (P1 and P2) and/or sFn solution (P3 and P4) for a final treatment concentration of 4 mM (4 uL added to 1 mL suspension). Cells were treated with peptides for 20 minutes at room temperature, followed directly by washing of cells (by centrifugation and resuspension—monocytes, or perfusion with RPMI 1640 for 10 min—tumor cells). For sFn peptide treatment, peptides remained in the sFn solution during incubation. Monocyte adherence to tumor cells under flow conditions was then performed as described above.

Assay [2] deals with T1, CD54 (ICAM-1) on A375 human melanoma cells (human, UniProt P05362 28-532).
T1 construct: whole, on cells; also called intercellular adhesion molecule-1
T1 sequence (P05362 28-532): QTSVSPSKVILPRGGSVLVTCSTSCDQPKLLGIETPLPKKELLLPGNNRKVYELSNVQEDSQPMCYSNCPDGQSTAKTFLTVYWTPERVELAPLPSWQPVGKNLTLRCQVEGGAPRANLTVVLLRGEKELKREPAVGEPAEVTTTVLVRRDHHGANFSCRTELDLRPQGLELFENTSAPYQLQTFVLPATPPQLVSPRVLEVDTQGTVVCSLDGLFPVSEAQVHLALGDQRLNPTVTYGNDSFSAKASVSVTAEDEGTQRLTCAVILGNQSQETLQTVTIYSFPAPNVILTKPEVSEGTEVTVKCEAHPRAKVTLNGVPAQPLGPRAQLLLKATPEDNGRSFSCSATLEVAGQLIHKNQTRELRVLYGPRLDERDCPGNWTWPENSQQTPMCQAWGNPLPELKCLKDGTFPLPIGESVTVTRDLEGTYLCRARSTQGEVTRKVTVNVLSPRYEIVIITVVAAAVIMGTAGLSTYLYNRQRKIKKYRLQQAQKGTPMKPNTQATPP
Put plainly: inferred from peptide blocking of monocyte/tumor cell adherence.

Regarding YKSMKKTTMKIIPFNRLTIF (Synthetic peptide) [Peptide 2 (P2), YKSMKKTTMKIIPFNRLTIF], in assay [1], the binding result was “binds”.

B1: Peptide 1 (P1), NNQKIVNLKEKVAQLEA (peptide)
peptide: NNQKIVNLKEKVAQLEA
notes: Synthetic peptide (Sigma-Genosys, 50% purity)
As for B1, the binding result in assay [2] is “binds”.
